Results from US20240092930A1 (MABWELL SHANGHAI BIOSCIENCE, published 2024).

Experiments:
[1] = target: T1, human Trop-2 on the surface of cells (CHO/Trop-2 cells; BxPC-3 cells; NCI-N87 cells) (human, UniProt P09758 27-323); assay: FACS, CHO/Trop-2 cells
T1 construct: whole, on cells; One molecule for all cell lines; the cell line is named under assay or readout; also called Trop-2 on the surface of CHO cells; recombinant human Trop-2 protein on the surface of CHO cells
T1 sequence (looked up): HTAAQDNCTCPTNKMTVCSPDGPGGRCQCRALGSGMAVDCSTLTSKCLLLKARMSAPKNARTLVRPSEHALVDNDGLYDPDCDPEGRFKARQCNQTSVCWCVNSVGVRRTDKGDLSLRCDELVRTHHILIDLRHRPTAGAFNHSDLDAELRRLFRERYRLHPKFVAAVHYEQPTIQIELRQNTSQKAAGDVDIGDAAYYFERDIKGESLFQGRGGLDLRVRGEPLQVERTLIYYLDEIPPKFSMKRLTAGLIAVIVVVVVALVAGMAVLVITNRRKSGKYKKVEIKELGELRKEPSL
Procedure: Suspensions of CHO cells recombinantly expressing human Trop-2 (CHO/Trop-2 cells) were incubated with chimeric antibodies ch3-11, ch4-3, ch17-1, ch11-4, and ch23-12 (dilutions at concentrations of 30 μg/ml and 10 μg/ml, and serial dilutions of 9 concentrations obtained through 3-fold serially diluting a solution with an initial concentration of 5 μg/ml, 11 concentrations in total) for 30 min at 37° C. Controls as follows were set: (1) Positive Control (PC): control antibody Sacituzumab; (2) Negative Control (NC): IgG1 isotype control antibody NC-IgG1. The cells were washed 3 times with PBS, and 1:100 dilution of goat anti-human IgG-FITC (Cat.: F9512, Sigma) was added into the cell which then were incubated for 30 min. Then the cells were washed 3 times with PBS again, and the Mean Fluorescence Intensity (MFI) of the cells was measured by a flow cytometer (model B49007AD, SNAW31211, BECKMAN COULTER) to detect binding ability of the chimeric antibodies to human Trop-2 on the surface of CHO cells.

[2] = target: T1, human Trop-2 on the surface of cells …; assay: cell-based or functional assay
[3] = target: T2, recombinant human Trop-2-his protein (ACCESSION NO.: NP_002344.2, AA 1-274) (human, UniProt P09758 27-274); assay: BLI, antibody on AHC sensor, Trop-2-his 60 nM
T2 construct: range 27-274; also called recombinant human Trop-2 protein; recombinant human Trop-2 extracellular domain; not shown: his tag
T2 sequence (looked up): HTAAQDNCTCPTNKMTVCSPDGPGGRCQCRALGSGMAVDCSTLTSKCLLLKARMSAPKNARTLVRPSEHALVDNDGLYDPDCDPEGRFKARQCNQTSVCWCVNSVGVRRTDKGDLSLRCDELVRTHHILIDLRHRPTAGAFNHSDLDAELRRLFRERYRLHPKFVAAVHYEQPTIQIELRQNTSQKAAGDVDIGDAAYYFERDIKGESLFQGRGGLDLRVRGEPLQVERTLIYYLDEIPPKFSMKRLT
Method in brief: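 Humanized antibodies at 4 μg/ml in PBS captured via Fc on anti-human IgG Fc (AHC) biosensors for 120 s; 60 nM Trop-2-his (AA 1-274) as analyte, 100 s association, 300 s dissociation. Blank-subtracted responses fitted to 1:1 Langmuir model for kinetic constants.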

B1: Sacituzumab (antibody, human IgG1, kappa, V domains shown)
VH: QVQLQQSGSELKKPGASVKVSCKASGYTFTNYGMNWVKQAPGQGLKWMGWINTYTGEPTYTDDFKGRFAFSLDTSVSTAYLQISSLKADDTAVYFCARGGFGSSYWYFDVWGQGSLVTVSS
VL: DIQLTQSPSSLSASVGDRVSITCKASQDVSIAVAWYQQKPGKAPKLLIYSASYRYTGVPDRFSGSGSGTDFTLTISSLQPEDFAVYYCQQHYITPLTFGAGTKVEIKR
notes: expressed in HEK293; also called control antibody Sacituzumab; Saituzumab
[1]
  EC50: 2.32 nM
[2]
  Internalization percentage (%), 1 h, BxPC-3 cells, FACS: 17.2%
  Internalization percentage (%), 3 h, BxPC-3 cells, FACS: 21.8%
  Internalization percentage (%), 5 h, BxPC-3 cells, FACS: 20.4%
[3]
  Kd: 0.723 nM
